Tests used:
5C.C7 TCR = assay: Single-molecule FRET (smFRET) measurement of TCR–pMHC bond distance on lipid bilayer (TIRF); format: cell-based, mouse; conditions: 1 µM LA, 1 h pretreatment and continuous presence, smFRET 37 °C, K5, MCC, 102S, 339–1295 trajectories per histogram
Experimental: We next performed Cy3/Cy5 single-molecule FRET (smFRET) on a lipid bilayer to measure the conformations of single TCR–pMHC bonds using TIRF microscopy (Fig. 2 and Fig. S1b). TCR–pMHC bond formation at live T-cell membrane brought the donor Cy3 and the acceptor Cy5 into close enough proximity to produce smFRET (Figs. 1a and 2a). The fluorescent intensities of Cy3 and Cy5 were simultaneously recorded in real time (Fig. 2b, top panel, and Fig. S4a), and the EFRET values were calculated based on the fluorescence intensities of the donor Cy3 and the acceptor Cy5 (Fig. 2b, bottom panel). […] By plotting the EFRET histogram and fitting it with a Gaussian function, we determined the most probale EFRET value of 0.7, corresponding to a 47 ± 3 Å distance between the 5C.C7 TCR and the super agonist K5 pMHC in a representative smFRET trajectory (Fig. 2c). […] We further measured the average TCR–pMHC bond distances using ensemble FRET on both a lipid bilayer and a glass surface (Figs. S4b and S7), and the results confirmed the single-bond measurements obtained using smFRET (Fig. 2d).
For the FRET measurements between TCRs and pMHCs on the cell surface (FRET1), we generated a peptide-exchangeable CLIP-IE^k molecule.[41] […] The protein fractions were analyzed by SDS-PAGE. […]

[1] = system: TCR microclusters of 5C.C7 T cells; assay: TCR microcluster formation at the T-cell synapse; format: cell-based, mouse; conditions: 1 µM LA
Source text: TCRs form microclusters upon antigen stimulation (Movie S4). To measure the conformational dynamics of single TCR–pMHC bonds without possible interference from TCR microclusters, we used latrunculin A (LA) to prevent the formation of TCR microclusters during smFRET measurements. […] We then performed smFRET in the absence of TCR microclusters.
To test whether TCR–CD3ζ conformational changes were dependent on TCR signaling, we used an Src kinase inhibitor PP2[27] to block TCR signaling. Consistent with the results of a previous study,[21] […] To reveal the role of TCR signaling in TCR–CD3ζ conformational changes, we plotted the time trajectories of the normalized intramolecular TCR–CD3ζ distances against the stimulation time in the absence and presence of PP2 (Fig. 4d). In the absence of PP2, the intracellular CD3ζ chain quickly separated from the TCR extracellular domain upon TCR engagement with the K5 pMHC and then reached a stable, fully extended TCR–CD3ζ conformation.
To measure the TCR–pMHC bond distance by smFRET in the absence of CD4 binding, T cells were incubated with 10 μg/mL anti-CD4 antibody (GK 1.5, Biolegend) and 0.027 µg/µL of Cy5-J1 scFV for 30 min at 4 °C. After three washes, the cells were added to a lipid bilayer containing Cy3-pMHCs, and smFRET assays were performed in the continuous presence of 10 μg/mL anti-CD4 antibody at 37 °C using TIRF microscopy. […]

[2] = target: 5C.C7 TCR (mouse (5C.C7 TCR transgenic mice))
[3] = target: 5C.C7 TCR (mouse (5C.C7 TCR transgenic mice)); assay: 2D micropipette adhesion frequency assay; biotinylated pMHC monomers on human RBCs by biotin–streptavidin; 5C.C7 T-cell blasts pre-incubated with 10 ug/mL anti-CD4 (GK 1.5); contact times 0.25-5 s, 50 cycles each; 25 °C (legend of Fig. 5); effective 2D constants from a probabilistic kinetic model
[4] = target: 5C.C7 TCR (mouse (5C.C7 TCR transgenic mice)); assay: FRET or BRET; ensemble Cy3/Cy5 FRET1 at the synapse; His-tagged Cy3-pMHC on a lipid bilayer (95 molecules/um^2) or a PEG-Ni2+ glass surface with ICAM-1 and B7-1; TCR on live primary 5C.C7 T cells labelled with scFv J1-Cy5; 37 °C

Molecule | separation between the TCR and CD3ζ after TCR–pMHC binding (transmembrane GFP/Alexa568 FRET2, lipid bilayer, 37 °C) [2] | AcKa (effective 2D affinity) [3] | AcKon (effective 2D on-rate) [3] | koff [3] | average synaptic E FRET1 [4] | also measured
C/C1=C/C(=O)O[C@@H]2C[C@@H](CC[C@H](C)/C=C\C=C\CC1)O[C@@](O)([C@@H]1CSC(=O)N1)C2 [latrunculin A] |  |  |  |  |  | effect on TCR–pMHC bond distances (latrunculin A) (5C.C7 TCR): very close to those measured in the presence of TCR microclusters; effect on TCR–pMHC bond distances (latrunculin A) (5C.C7 TCR; listed as LA): no differences in the TCR–pMHC bond distances; effect of LA on TCR microcluster formation [1]: no TCR microclusters were observed
biotinylated monomeric IE^k covalently complexed with the 102S peptide (from UniProt P04230 30-225) (peptide-MHC) | 5 Å | 1.6e-05 µm^4 | 2.4e-06 µm^4 s^−1 | 1.5 s⁻¹ |  | 
K5(C)-Cy3 peptide on His-tagged IE^k (from UniProt P04230 30-225) (peptide-MHC) |  |  |  |  | 0.79 | 
biotinylated monomeric IE^k covalently complexed with the K5 peptide (from UniProt P04230 30-225) (peptide-MHC) | 15 Å | 0.00037 µm^4 | 3.6e-05 µm^4 s^−1 | 1 s⁻¹ |  | 
T102S(C)-Cy3 peptide on His-tagged IE^k (from UniProt P04230 30-225) (peptide-MHC) |  |  |  |  | 0.29 | 
biotinylated monomeric IE^k covalently complexed with the MCC peptide (from UniProt P04230 30-225) (peptide-MHC) | 10 Å | 0.00015 µm^4 | 2e-05 µm^4 s^−1 | 1.3 s⁻¹ |  | 
MCC(C)-Cy3 peptide on His-tagged IE^k (from UniProt P04230 30-225) (peptide-MHC) |  |  |  |  | 0.54 | 

From article PMC7052167, “TCR–pMHC bond conformation controls TCR ligand discrimination” (Cellular and Molecular Immunology, 2019)
